Data reported in patent US7951385B2, “Probiotic strain and antimicrobial peptide derived therefrom” (Cipla Medpro Research and Development (Pty) Ltd., priority 2006, dated 2011).
Read-outs that look alike come from different tables or passages of the source.

Tests used:
Lactobacillus casei LHS = assay: Effect of enzymes, temperature, pH and detergents on antimicrobial activity of peptide ST4SA; type: physicochemical; set-up: key: − = no activity; + = activity zones of at least 5 mm in diameter
Description: Antimicrobial activity was expressed as arbitrary units (AU) per ml cell-free supernatant. One AU is defined as the reciprocal of the highest dilution showing a clear zone of growth inhibition and is calculated as follows:
a^b×100, where “a” represents the dilution factor and “b” the last dilution that produces an inhibition zone of at least 2 mm in diameter. Activity is expressed per ml by multiplication with 100. Lactobacillus casei LHS was used as indicator strain.
The cells were harvested (8 000×g, 4° C., 15 min) and the cell-free supernatants adjusted to pH 6.0 with 6M NaOH. One ml of each supernatant was treated with catalase (Boehringer Mannheim) at 0.1 mg/ml (final concentration), Proteinase K (Roche, Indianapolis, Ind., USA), pronase, papain, pepsin and trypsin (Boehringer Mannheim GmbH, Germany), at 1 mg/ml and 0.1 mg/ml (final concentration), respectively. After incubation the enzymes were heat-inactivated (3 min at 100° C.) and tested for antimicrobial activity, as described before.
Aliquots of peptide ST4SA were exposed to heat treatments of 30° C., 60° C. and 100° C. for 10, 30 and 90 min, respectively, and 121° C. for 20 min (Table 3). The samples were then tested for antimicrobial activity, as described before.
In a separate experiment, samples of peptide ST4SA were adjusted to pH values ranging from 2-12, incubated at 37° C. for 30 min, neutralised to pH 7, and then tested for antimicrobial activity (Table 3).

[1] = test system: Lactobacillus sakei DSM 20017; assay: Binding of peptide ST4SA to polyethylene (PE); type: physicochemical
Description: Binding of peptide ST4SA to polyethylene (PE) was tested. PE film was cut into sections of 5×5 cm and soaked for 1 h in a solution of 60% isopropanol and peptide ST4SA (activity level: 102 400 AU/ml). The PE sections were air-dried (20 min at 60° C.) and assayed for antimicrobial activity by using the standard agar diffusion method. The plates, seeded with L. sakei DSM 20017, were incubated for 24 h at 30° C. and examined for zones of growth inhibition.
The strength of binding was determined by soaking the peptide-coated PE film in SDS-buffer, followed by electro-eluting peptide ST4SA from the film with a current of 30 mA for 2 h (room temperature, i.e. ca. 25° C.). Samples were taken at regular time intervals and tested for antimicrobial activity. Protein concentrations were determined by using the Bradford method. Electro-eluted film was tested for antimicrobial activity by using the agar diffusion method as before.

L. monocytogenes = L. monocytogenes challenged with ST4SA in in vitro gastro-intestinal (GIT) model; type: cell-based, Listeria monocytogenes
Description: The antimicrobial activity of ST4SA against L. monocytogenes in an in vitro gastro-intestinal model was determined. ST4SA was inoculated in the stomach vessel as described hereinbefore. L. monocytogenes (1×10^4) was inoculated in the duodenum vessel of the GIT. Samples were taken from each vessel and plated out on Enterococcus and Listeria specific medium, respectively. As control, only L. monocytogenes was inoculated in the GIT model.

[2] = test system: pathogenic bacteria (Listeria, Bacillus and Staphylococcus); assay: Challenge study with red meat as model, PE-bound peptide; conditions: surface (PE)-bound peptide
Description: Peptide ST4SA adhered strongly, and it would seem irreversibly, to the PE film. Release of peptide ST4SA from the surface of PE was only possible after 1 h with a current of 30 mA. […] The encapsulation of the antimicrobial peptide in the polymer leads to a slow release of the antimicrobial peptide and an extended period of treatment of a microbial infection.

[3] = test system: tumour necrosis factor (TNF), interferon γ (IFN); assay: Immune modulation (cytokine RNA hybridization, ileum and colon); type: in vivo, rat
Description: Total RNA was extracted from the frozen ileum and colon samples using Trizol reagent. The concentration of RNA was determined by measuring the absorbance at 260 nm using a Nanodrop spectrophotometer, after DNase treatment had been completed. Each RNA sample was diluted to a concentration of 42 ng/μl. A total of 5 μg of each sample was transferred in triplicate onto a nylon membrane using a slot blot apparatus. The membrane was then probed with either a tumour necrosis factor (TNF), interferon γ (IFN) or β-actin DNA probe amplified from rat genomic DNA and labeled with DIG. The membrane was exposed to X-ray film overnight and developed.

[4] = type: physicochemical
Description: The stability of peptide ST4SA, suspended in sterile distilled water, was tested at temperatures ranging from −20° C. to 60° C. over 42 days (FIG. 12). The peptide remained stable at −20° C. for 42 days and for three weeks at 4° C. […] Peptide ST4SA in powder form did, however, remain stable for 6 months at room temperature (25° C.). Peptide ST4SA will be produced in powder form and marketed as such. Once dissolved in sterile distilled water, peptide ST4SA may be kept for three weeks at 4° C. (see FIG. 12).

[5] = test system: Pseudomonas sp. isolated from infected middle-ear fluid; assay: Activity on paper disks and comparison with antibiotics (inhibition zones); type: cell-based
Description: Activity was tested against a Pseudomonas sp. isolated from infected middle-ear fluid.

[6] = test system: Lactobacillus sakei DSM 20017; assay: Blocking of the Lipid II target site with vancomycin; type: cell-based; conditions: L. sakei DSM 20017, FIG. 26
Description: To test this hypothesis, the Lipid II target site of Lactobacillus sakei DSM 20017 (sensitive to peptide ST 4SA) was blocked with vancomycin (see schematic presentation, FIG. 26). Vancomycin adheres to the amino acid side chain of the Lipid II molecule, which would, theoretically, prevent peptide ST4SA from binding to the same site (that is if Lipid II acts as receptor). […] The fact that peptide ST4SA binds to more than one anchoring site on the sensitive cell may explain why it has such a broad spectrum of antimicrobial activity (inhibitory to Gram-positive and Gram-negative bacteria).

## Peptide ST4SA: broad-spectrum antibacterial peptide (bacteriocin) produced by Enterococcus mundtii strain ST4SA, SEQ. ID. NO. 12 (MSQVVGGKYYGNGVSCNKKGCSVDWGKAIGIIGNNSAANLATGGAAGWKS; ENTEROCOCCUS MUNDTII ST4SA)
Lactobacillus casei LHS; Detergents (1%): SDS
  Antimicrobial activity after treatment: + (+ = activity zones of at least 5 mm in diameter)
Lactobacillus casei LHS; Detergents (1%): Triton X-100
  Antimicrobial activity after treatment: + (+ = activity zones of at least 5 mm in diameter)
Lactobacillus casei LHS; Detergents (1%): Triton X-114
  Antimicrobial activity after treatment: −
Lactobacillus casei LHS; Detergents (1%): Tween 20, Tween 80
  Antimicrobial activity after treatment: + (+ = activity zones of at least 5 mm in diameter)
Lactobacillus casei LHS; Detergents (1%): urea
  Antimicrobial activity after treatment: + (+ = activity zones of at least 5 mm in diameter)
Lactobacillus casei LHS; EDTA: 0.1 mM, 1.0 mM, 2.0 mM
  Antimicrobial activity after treatment: + (+ = activity zones of at least 5 mm in diameter)
Lactobacillus casei LHS; Enzymes: Proteinase K
  Antimicrobial activity after treatment: −
Lactobacillus casei LHS; Enzymes: pepsin
  Antimicrobial activity after treatment: −
Lactobacillus casei LHS; Enzymes: pronase
  Antimicrobial activity after treatment: −
Lactobacillus casei LHS; Enzymes: α-amylase
  Antimicrobial activity after treatment: + (+ = activity zones of at least 5 mm in diameter)
Lactobacillus casei LHS; Heat: 30, 60, 100° C. for 10 min
  Antimicrobial activity after treatment: + (+ = activity zones of at least 5 mm in diameter)
Lactobacillus casei LHS; Heat: 30, 60, 100° C. for 30 min
  Antimicrobial activity after treatment: + (+ = activity zones of at least 5 mm in diameter)
Lactobacillus casei LHS; Heat: 30, 60, 100° C. for 90 min
  Antimicrobial activity after treatment: + (+ = activity zones of at least 5 mm in diameter)
Lactobacillus casei LHS; Heat: 121° C. for 20 min
  Antimicrobial activity after treatment: −
Lactobacillus casei LHS; pH 2.0-12.0, 37° C. for 30 min, neutralised to pH 7
  Antimicrobial activity after treatment: + (+ = activity zones of at least 5 mm in diameter)
Lactobacillus casei LHS; proteolytic enzyme papain
  Antimicrobial activity after treatment: inactivated
Lactobacillus casei LHS; proteolytic enzyme trypsin
  Antimicrobial activity after treatment: inactivated
[1]; PE film, 60% isopropanol, peptide 102 400 AU/ml
  Time to adsorb to PE: ≤ 60 s
[1]; agar diffusion, L. sakei DSM 20017
  Antimicrobial activity of peptide-coated PE film: high antimicrobial activity
[1]; electro-elution, current of 30 mA, SDS-buffer
  Time to release of peptide from the surface of PE: ≥ 1 h
L. monocytogenes; ileum vessel, compared with the control
  L. monocytogenes lower than control: 1×10^1 cfu/ml
L. monocytogenes; jejunum vessel, reduced from 8×10^4 (control)
  Growth of L. monocytogenes: 2×10^4
[2]
  Growth of pathogenic bacteria on red meat: prevented the growth of pathogenic bacteria
[3]
  Cytokine (TNF or IFN) expression: did not indicate any cytokine (TNF or IFN) expression
[4]
  Stability: Stability decreased after one week
[4]; powder form, room temperature (25° C.)
  Time peptide remained stable: 6 months
[4]; suspended in sterile distilled water, 4° C.
  Time peptide remained stable: three weeks
[4]; suspended in sterile distilled water, −20° C.
  Time peptide remained stable: 42 days
[5]; Ampicillin 10 μg, Bacitracin 10 units, Chloramphenicol 30 μg, Erythromycin 15 μg, Tetracycline 30 μg, peptide on paper disk
  Diameter of inhibition zones: 25 mm
[5]; Freeze dried
  Activity of peptide ST4SA on paper disks: 409600 AU/ml
[5]; Paper disk (0.6 cm diameter)
  Activity of peptide ST4SA on paper disks: 20263 AU/ml
[5]; Paper disk (2 cm × 2 cm; 700 μl)
  Activity of peptide ST4SA on paper disks: 286720 AU/ml
[6]
  Effect on target cells after blocking Lipid II with vancomycin: resulted in growth inhibition
